Data as given in patent US20080131434A1 (ONCOMED PHARMACEUTICALS, published 2008).

What was measured:
EGF2-5 = molecular target: T1, EGF2-5; assay: Western blot of Fc fusion proteins of the antigen deletion series, non-reduced SDS-PAGE
T1 construct: member of the EGF 1-5 deletion series; also called NOTCH1 EGF 2-5 Fc fusion protein (deletion series)
T1 chain: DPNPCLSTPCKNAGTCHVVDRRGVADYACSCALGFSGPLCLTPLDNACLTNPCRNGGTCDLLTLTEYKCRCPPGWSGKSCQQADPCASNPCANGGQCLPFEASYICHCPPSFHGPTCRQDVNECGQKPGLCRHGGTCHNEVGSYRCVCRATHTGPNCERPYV
Source text: (§1) FIG. 1: Epitope mapping of anti-NOTCH1 monoclonal antibodies that bind to non-ligand binding domains.
(§2) To identify antibodies that recognize specific non-ligand binding regions of the NOTCH receptor extracellular domains, epitope mapping was preformed. In certain embodiments, mammalian expression plasmid vectors comprising a CMV promoter upstream of polynucleotides that encode fragments of the extracellular NOTCH1 domain as Fc fusion proteins were generated using standard recombinant DNA technology. These fusion proteins included a series of NOTCH1 fragments containing a nested series of deletions of EGF domains 1-5 or 10-15. Recombinant proteins were then expressed in cultured mammalian cells by transient transfection. Twenty-four to 48 hours following transfection, cells were harvested and cell lysate protein separated on non-reducing SDS-PAGE acrylamide gels for Western blotting using antibodies from mice immunized with NOTCH1 antigen. […] All antibody affinities were determined by BIAcore.

EGF1-2 = molecular target: T2, EGF1-2; assay: as above
T2 construct: member of the EGF 1-5 deletion series; also called NOTCH1 EGF 1-2 Fc fusion protein (deletion series)
T2 chain: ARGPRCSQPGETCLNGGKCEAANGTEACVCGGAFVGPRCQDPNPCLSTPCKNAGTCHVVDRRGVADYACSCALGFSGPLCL
Source text: as §1, §2

EGF1 = molecular target: T3, EGF1; assay: as above
T3 construct: member of the EGF 1-5 deletion series; also called NOTCH1 EGF 1 Fc fusion protein (deletion series)
T3 chain: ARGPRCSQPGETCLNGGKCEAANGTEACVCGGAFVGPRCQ
Source text: as §1, §2

[1] = molecular target: T4, NOTCH1 (construct used in the assay not stated) (human, UniProt P46531 19-220, limits assumed); assay: BIAcore; format and NOTCH1 construct not stated
T4 sequence (looked up): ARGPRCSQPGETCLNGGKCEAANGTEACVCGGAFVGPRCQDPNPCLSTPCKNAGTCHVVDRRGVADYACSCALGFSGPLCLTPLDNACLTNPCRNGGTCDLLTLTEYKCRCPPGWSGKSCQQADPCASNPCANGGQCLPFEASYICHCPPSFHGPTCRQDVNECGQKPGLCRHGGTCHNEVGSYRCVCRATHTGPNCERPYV

[2] = molecular target: T5, NOTCH1 EGF 5 Fc fusion protein (human, UniProt P46531 178-220, limits assumed); assay: Western blot, SDS-PAGE of Fc fusion proteins
T5 construct: domain: EGF 5; Member of the nested deletion series; also called EGF 5 alone; not shown: Fc
T5 chain (looked up): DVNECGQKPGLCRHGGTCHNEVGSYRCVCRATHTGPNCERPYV
Source text: as §1, §2

[3] = molecular target: T6, NOTCH1 EGF 1-3 Fc fusion protein (human, UniProt P46531 19-139, limits assumed); assay: Western blot, SDS-PAGE of Fc fusion proteins
T6 construct: domain: EGF 1-3; Member of the nested deletion series; not shown: Fc
T6 sequence (looked up): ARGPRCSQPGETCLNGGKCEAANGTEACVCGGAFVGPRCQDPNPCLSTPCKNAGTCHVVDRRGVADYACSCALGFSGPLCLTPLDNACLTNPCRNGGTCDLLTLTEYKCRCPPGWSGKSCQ
Source text: as §1, §2

binding result (EGF2-5): binds
binding result (EGF1-2): no binding
binding result (EGF1): no binding
Kd [1]: 0.2 nM
binding result [2]: no binding
binding result [3]: no binding
B1: anti-NOTCH1 monoclonal antibody 13M57 (antibody, mouse IgG1, kappa, V domains shown)
VH: EVNLVESGGDLVQPGGSLRLSCAASGFTFSSYTMSWVRQTPEKRLEWVAYIDYGGDFTSYSDAIRGRFTISRDNAKNTLYLQMSSLKSEDTAIYYCSRRRYDAMDYWGQGTSVIVSS
VL: DIQMTQSTSSLSASLGDRVTVSCSASQAISNYLNWYQQKPDGTLKLLIYYTTNLHSGVPSRFSGSGSGTDYSLTISNLEPEDIATYYCQQYSKFPWTFGGGTKLEIKR
notes: Murine hybridoma antibody raised against NOTCH1 EGF repeats 1-5; Conjugated to Alexa Fluor 647 for some FACS work; also called 13M30
